B1: ET150-156 scFv (scFv)
scFv: QSALTQPASVSGSPGQSITISCTGTSRDVGGYNYVSWYQQYPGKAPKLMIYEVSKRPSGVSNRFSGSKSGNTASLTISGLQAEDEADYYCSSYTSSSTLDFGTGTKVTVLGSRGGGGSGGGGSGGGGSLEMAQVQLVQSGAEVKQPGASVKVSCQASGYTFTTYYMHWVRQAPGQGLEWMGIINPNGGGTFYAQKFQDRVTMTRDTSTGTVYMELSSLRSDDTAVYYCARGHKVYKSHPTGGYDRWGQGTLVTVSS
notes: also called ET150-6 scFv
B2: ET150-157 scFv (scFv)
scFv: SYELTQPPSASGTPGQRVTISCSGSSSNIGSNYVSWYQQLPGTAPKLLIYRNNQRPSGVPDRFSGSKSGTSASLAISGLRSEDEADYYCAAWDDSLSGVVFGGGTKLTVLGSRGGGGSGGGGSGGGGSLEMAEVQLVQSGAEVKKPGSSVKVSCKASGGTFSSYAISWVRQAPGQGLEWMGGIIPIFGTAKYAQKFQGRVTITADESTSTAYMELSSLRSEDTAVYYCARSHVAWSLLDYWGQGTLVTVSS
notes: also called ET150-7 scFv
B3: ET150-159 scFv (scFv)
scFv: QSVLTQPPSASGTPGQRVTISCSGSSSNIGSNYVYWYQQLPGTAPKLLIYRNNQRPSGVPDRFSGSKSGTSASLAISGLRSEDEADYYCAAWDDSLSGWVFGGGTKLTVLGSRGGGGSGGGGSGGGGSLEMAQVQLVQSGAEVKKPGSSVKVSCKASGGTFSSYAISWVRQAPGQGLEWMGWMNPNSGNTGYAQKFQGRVTMTRNTSISTAYMELSSLRSEDTAVYYCARYQSYKGSQSDSWGQGTLVTVSS
notes: also called ET150-9 scFv
B4: ET150-5 mIgG1 (antibody, V domains shown)
VH: EVQLVESGGGLVKPGGSLRLSCAASGFTFSDYYMSWIRQAPGKGLEWVSYISSSGSTIYYADSVKGRFTISRDNAKNSLYLQMNSLRAEDTAVYYCARGYGKAYDQWGQGTLVTVSS
VL: QSVLTQPPSASGTPGQRVTISCSGSRSNVGGNYVFWYQQVPGATPKLLIYRSNQRPSGVPDRFAGSKSGSSASLAISGLRSEDEADYYCATWDDSLSGFVFGTGTKVTVLG
notes: also called ET150-155
B5: ET150-2 mIgG1 (antibody, V domains shown)
VH: QMQLVQSGAEVKKPGASVKVSCKASGYTFNRYAITWVRQAPGQGLEWMGWISAYNGNSHYAQKLQGRVTMTTDTSTGTAYMELRRLRSDDTAVYYCARMAYDSWGQGTLVTVSS
VL: QSVLTQPASVSGSPGQSLTISCTGTSNDVGAYKYVSWYQQYPGKAPKLILYDVFKRPSGVSNRFSGSKSDNTASLTISGLQAEDEADYYCFSLTSSNTYVFGTGTKVTVLG
notes: also called ET150-152
B6: ET150-18 mIgG1 (antibody, V domains shown)
VH: EVQLVESGGGLIQPGGSLRLSCAASGFTFSNYAMNWVRQAPGKGLEWVSTINGRGSSTIYADSVKGRFTISRDNSKNTLYLQMNSLRAEDTATYYCARYISRGLGDSWGQGTLVTV
VL: QSVVTQPPSMSAAPGQQVTISCSGGNSNIERNYVSWYLQLPGTAPKLVIFDNDRRPSGIPDRFSGSKSGTSATLGITGLQTGDEADYYCGTWDSSLRGWVFGGGTKLTVLG
notes: also called ET150-168
B7: ET150-8 mIgG1 (antibody, V domains shown)
VH: QVQLVESGGGLVHPGGSLRLSCAASGFTFRSHSMNWVRQAPGKGLEWVSSISSDSTYTYYADSVKGRFTISRDNAKNSLYLQMNSLRAEDTAVYYCARSGGQWKYYDYWGQGTLVTVSS
VL: SSELTQDPAVSVALGQTVRITCQGDSLRSYYASWYQQKPGQAPVLVIYGKNNRPSGIPDRFSGSSSGNTASLTITGAQAEDEADYYCNSRDSSGNPPVVFGGGTKLTVLG
notes: also called ET150-158
B8: ET150-151 scFv (scFv)
scFv: QSVVTQPASVSGSPGQSITISCTGTSSDVGGYNYVSWYQQHPGKAPKLMIYDVSKRPSGVSNRFSGSKSGNTASLTISGLQAEDEADYYCSSYTSSSTLVFGGGTKLTVLGSRGGGGSGGGGSGGGGSLEMAEVQLVESGGAFVQPGGSLRLSCAASGFTFSSYAMTWVRQAPGKGLEWVSTISGRGRSTFYADSVKGRFTISRDNSKNTLYLQMNSLRAEDTAVYYCARYYHAGAFDLWGQGTLVTVSS
notes: also called ET150-1 scFv
B9: ET150-155 scFv (scFv)
scFv: QSVLTQPPSASGTPGQRVTISCSGSRSNVGGNYVFWYQQVPGATPKLLIYRSNQRPSGVPDRFAGSKSGSSASLAISGLRSEDEADYYCATWDDSLSGFVFGTGTKVTVLGSRGGGGSGGGGSGGGGSLEMAEVQLVESGGGLVKPGGSLRLSCAASGFTFSDYYMSWIRQAPGKGLEWVSYISSSGSTIYYADSVKGRFTISRDNAKNSLYLQMNSLRAEDTAVYYCARGYGKAYDQWGQGTLVTVSS
notes: also called ET150-5 scFv
B10: ET150-168 scFv (scFv)
scFv: QSVVTQPPSMSAAPGQQVTISCSGGNSNIERNYVSWYLQLPGTAPKLVIFDNDRRPSGIPDRFSGSKSGTSATLGITGLQTGDEADYYCGTWDSSLRGWVFGGGTKLTVLGSRGGGGSGGGGSGGGGSLEMAEVQLVESGGGLIQPGGSLRLSCAASGFTFSNYAMNWVRQAPGKGLEWVSTINGRGSSTIYADSVKGRFTISRDNSKNTLYLQMNSLRAEDTATYYCARYISRGLGDSWGQGTLVTV
notes: also called ET150-18 scFv
B11: ET150-158 scFv (scFv)
scFv: SSELTQDPAVSVALGQTVRITCQGDSLRSYYASWYQQKPGQAPVLVIYGKNNRPSGIPDRFSGSSSGNTASLTITGAQAEDEADYYCNSRDSSGNPPVVFGGGTKLTVLGSRGGGGSGGGGSGGGGSLEMAQVQLVESGGGLVHPGGSLRLSCAASGFTFRSHSMNWVRQAPGKGLEWVSSISSDSTYTYYADSVKGRFTISRDNAKNSLYLQMNSLRAEDTAVYYCARSGGQWKYYDYWGQGTLVTVSS
notes: also called ET150-8 scFv
B12: ET150-152 scFv (scFv)
scFv: QSVLTQPASVSGSPGQSLTISCTGTSNDVGAYKYVSWYQQYPGKAPKLILYDVFKRPSGVSNRFSGSKSDNTASLTISGLQAEDEADYYCFSLTSSNTYVFGTGTKVTVLGSRGGGGSGGGGSGGGGSLEMAQMQLVQSGAEVKKPGASVKVSCKASGYTFNRYAITWVRQAPGQGLEWMGWISAYNGNSHYAQKLQGRVTMTTDTSTGTAYMELRRLRSDDTAVYYCARMAYDSWGQGTLVTVSS
notes: also called ET150-2 scFv

Biological target: T1, human G-protein coupled receptor family C group 5 member D (GPRC5D) (human, UniProt Q9NZD1 1-345)
T1 construct: Overexpressed on 3T3 cells in the FACS assays; also called human GPRC5D; 3T3-GPRC5D
Assay: FACS, scFv phage clones on 3T3 cells overexpressing GPRC5D

T1 sequence (Q9NZD1 whole entry): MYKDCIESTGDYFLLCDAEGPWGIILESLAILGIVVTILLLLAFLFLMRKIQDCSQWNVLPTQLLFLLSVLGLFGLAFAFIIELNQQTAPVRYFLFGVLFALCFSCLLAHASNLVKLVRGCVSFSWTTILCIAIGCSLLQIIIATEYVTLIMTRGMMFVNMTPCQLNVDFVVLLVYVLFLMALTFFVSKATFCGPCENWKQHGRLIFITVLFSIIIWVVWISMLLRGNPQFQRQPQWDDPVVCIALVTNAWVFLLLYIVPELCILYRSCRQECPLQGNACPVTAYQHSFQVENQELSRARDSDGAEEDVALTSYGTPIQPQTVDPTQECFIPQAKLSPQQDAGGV

binding result	Binder
binds	B1
binds	B2
binds	B3

Biological target: T1, human G-protein coupled receptor family …
Assay: flow cytometry (MFI, FL2) on 3T3-GPRC5D and parental 3T3 cells at 10 and 1 µg/mL, PE-labelled anti-mouse IgG secondary antibody
Protocol: Each antibody (ET150-1, ET150-2, ET150-5, ET150-8, ET150-18) was incubated with 3T3 or 3T3-GPRC5D cells at 10 or 1 μg/mL, then with anti-M13 mouse antibody. Finally PE-labeled anti-mouse IgG 2nd antibody was added to the reaction. The binding was measured by FACS and expressed as mean fluorescence intensity (MFI) (FIG. 13). Cells incubated with 2nd antibody alone, ET901 mIgG1 isotype control and cells only were used as negative controls.

binding result	Binder
binds	B4
binds	B5
binds	B6
binds	B7

Biological target: T1, human G-protein coupled receptor family …
Assay: flow cytometry: phage clone on 3T3-GPRC5D cells (printed 3T3-ET150), anti-M13 mouse antibody, then APC-labelled anti-mouse IgG; control without phage (A04 anti-M13+ APC mIgG) median 10.9
Protocol: FACS Screening. […] Phage clones were incubated with 3T3-GPRC5D cell line, then with anti-M13 mouse antibody. Finally APC-labeled anti-mouse IgG 2nd antibody was added to the reaction after washing again. The binding was measured by FACS and expressed as mean fluorescence intensity (MFI). Cells incubated with M13 K07 helper phage and cells only were used as negative controls.

Median, RED2-HLin	Binder
3230	B8
3220	B9
3180	B10
3110	B11
2400	B12

Source: patent US20240076370A1 (Memorial Sloan Kettering, published 2024)
